Article PMC4740771, “Nucleotide-dependent assembly of the peroxisomal receptor export complex” (Scientific Reports, 2016)

Key:
[1] = molecular target: Pex15p(1-315)His (GST removed by thrombin) (S. cerevisiae) (UniProt Q08215); assay: SEC; Pex1/6p/Pex15p complex isolated on GSH-agarose, released by thrombin (GST left on the column), Superose 6 (small-scale and preparative) in presence of ATP; anti-His immunoblot or Coomassie, signal intensities by ImageJ
[2] = molecular target: Pex15p(1-315)His (GST removed by thrombin) (S. cerevisiae) (UniProt Q08215); assay: SEC; 700 kDa fractions of the Pex1/6p/Pex15p complexes pooled, kept 72 h on ice (4 °C), then size exclusion again; anti-His immunoblot, signal intensities
[3] = molecular target: Pex15p(1-315)His (GST removed by thrombin) (S. cerevisiae) (UniProt Q08215); assay: SEC; as a8 but 2.5 mM ATPγS added during thrombin incubation of the wild-type complex
[4] = molecular target: GST-Pex15p(1-315)His (S. cerevisiae) (UniProt Q08215); assay: pull-down; GST-Pex15p(1-315)His incubated with purified proteins, loaded on GSH-agarose, eluted with glutathione; 5 mM ATP; Coomassie and immunoblot, signal intensities of load and eluate
[5] = molecular target: the molecule itself; assay: SEC; second gel filtration of the purified heterohexameric complexes after incubation at 37 °C
[6] = molecular target: T1, HisPex1p released from HisPex1pGST by thrombin (S. cerevisiae, UniProt P24004 1-1043); assay: SEC; Pex1/6p/Pex15p complex isolated on GSH-agarose, released by thrombin (GST left on the column), Superose 6 (small-scale and preparative) in presence of ATP; anti-His immunoblot or Coomassie, signal intensities by ImageJ; conditions: both partners purified
T1 construct: Pex1p, type II AAA-ATPase peroxin of yeast; The GST tag held the complex on GSH-agarose during purification and stayed on the column after thrombin cleavage; source: E. coli Tuner (DE3), co-purified with HisPex6p (NiNTA-agarose, GSH-agarose, thrombin release); not shown: His6, N-terminal, kept; GST, C-terminal, cleaved
T1 sequence (looked up): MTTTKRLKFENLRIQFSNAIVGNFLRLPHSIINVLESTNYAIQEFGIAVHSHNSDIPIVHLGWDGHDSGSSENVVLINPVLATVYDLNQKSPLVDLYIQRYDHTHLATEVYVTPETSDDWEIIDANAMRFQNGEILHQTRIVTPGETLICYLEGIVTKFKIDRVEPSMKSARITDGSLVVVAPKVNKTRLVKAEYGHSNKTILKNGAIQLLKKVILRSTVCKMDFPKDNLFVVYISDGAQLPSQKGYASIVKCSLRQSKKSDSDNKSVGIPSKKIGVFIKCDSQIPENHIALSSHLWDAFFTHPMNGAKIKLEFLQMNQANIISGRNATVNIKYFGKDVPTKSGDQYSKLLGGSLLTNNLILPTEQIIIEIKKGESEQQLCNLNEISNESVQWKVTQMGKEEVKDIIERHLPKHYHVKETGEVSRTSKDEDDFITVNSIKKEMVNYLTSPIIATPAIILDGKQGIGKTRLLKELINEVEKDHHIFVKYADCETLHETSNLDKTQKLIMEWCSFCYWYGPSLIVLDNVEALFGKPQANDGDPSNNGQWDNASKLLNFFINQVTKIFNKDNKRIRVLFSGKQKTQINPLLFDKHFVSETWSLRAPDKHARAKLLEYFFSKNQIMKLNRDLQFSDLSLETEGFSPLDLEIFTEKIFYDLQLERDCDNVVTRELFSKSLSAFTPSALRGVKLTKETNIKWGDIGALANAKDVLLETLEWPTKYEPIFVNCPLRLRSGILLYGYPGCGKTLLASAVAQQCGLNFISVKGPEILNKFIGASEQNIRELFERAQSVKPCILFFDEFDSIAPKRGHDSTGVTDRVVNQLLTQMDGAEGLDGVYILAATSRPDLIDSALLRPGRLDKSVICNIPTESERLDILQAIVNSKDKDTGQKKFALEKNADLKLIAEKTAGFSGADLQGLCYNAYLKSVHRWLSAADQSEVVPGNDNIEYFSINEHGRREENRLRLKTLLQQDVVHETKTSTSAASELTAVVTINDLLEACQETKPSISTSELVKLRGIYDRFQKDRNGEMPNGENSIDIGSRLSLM

[7] = molecular target: T2, Pex15p(1-315)His (GST removed by thrombin) (S. cerevisiae, UniProt Q08215 1-315); assay: as above; conditions: both partners purified
T2 construct: Pex15p of S. cerevisiae, cytosolic part, residues 1 to 315; Same construct as m10 after thrombin cleavage; detected by anti-His antibodies; Printed mass 36 kDa; alone it eluted at about 100 kDa; also called Pex15pHis; source: E. coli BL21 (DE3), purified (Glutathione Agarose 4B), released from GSH-agarose by thrombin; not shown: GST, N-terminal, cleaved; His6, C-terminal, kept
T2 sequence (looked up): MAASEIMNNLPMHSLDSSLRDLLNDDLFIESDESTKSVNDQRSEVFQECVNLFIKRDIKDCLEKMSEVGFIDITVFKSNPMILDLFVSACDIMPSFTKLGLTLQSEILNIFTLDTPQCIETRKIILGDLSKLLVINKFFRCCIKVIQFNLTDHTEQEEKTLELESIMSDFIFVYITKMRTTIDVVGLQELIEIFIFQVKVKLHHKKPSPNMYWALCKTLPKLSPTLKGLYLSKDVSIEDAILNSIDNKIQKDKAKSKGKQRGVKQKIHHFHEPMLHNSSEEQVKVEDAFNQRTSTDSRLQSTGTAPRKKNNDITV

Molecule: Pex1/6pWB complex (wild-type Pex1p with Pex6p E832Q), P24004 1-1043; P33760 1-1030
- stoichiometry N (Pex15p per Pex1p of the complex) [1]: 0.9
- percent of Pex15p still bound after 72 h [2]: 40%

Molecule: Pex1/6p-complex (recombinant heterohexameric AAA-complex), P24004 1-1043; P33760 1-1030
- percent of Pex15p still bound after 72 h [3]: 20%
- fold binding against single Pex6p [4]: 3 fold
- stoichiometry N (Pex15p per Pex1p of the complex) [1]: 0.9
- stoichiometry N ([1]; scale: Pex15p per heterohexameric Pex1/6p complex): 3
- percent of Pex15p still bound after 72 h [2]: < 10%

B1: HisPex1p(D797N) released from its GST fusion (natural protein, S. cerevisiae, UniProt P24004 1-1043, looked up)
chain: MTTTKRLKFENLRIQFSNAIVGNFLRLPHSIINVLESTNYAIQEFGIAVHSHNSDIPIVHLGWDGHDSGSSENVVLINPVLATVYDLNQKSPLVDLYIQRYDHTHLATEVYVTPETSDDWEIIDANAMRFQNGEILHQTRIVTPGETLICYLEGIVTKFKIDRVEPSMKSARITDGSLVVVAPKVNKTRLVKAEYGHSNKTILKNGAIQLLKKVILRSTVCKMDFPKDNLFVVYISDGAQLPSQKGYASIVKCSLRQSKKSDSDNKSVGIPSKKIGVFIKCDSQIPENHIALSSHLWDAFFTHPMNGAKIKLEFLQMNQANIISGRNATVNIKYFGKDVPTKSGDQYSKLLGGSLLTNNLILPTEQIIIEIKKGESEQQLCNLNEISNESVQWKVTQMGKEEVKDIIERHLPKHYHVKETGEVSRTSKDEDDFITVNSIKKEMVNYLTSPIIATPAIILDGKQGIGKTRLLKELINEVEKDHHIFVKYADCETLHETSNLDKTQKLIMEWCSFCYWYGPSLIVLDNVEALFGKPQANDGDPSNNGQWDNASKLLNFFINQVTKIFNKDNKRIRVLFSGKQKTQINPLLFDKHFVSETWSLRAPDKHARAKLLEYFFSKNQIMKLNRDLQFSDLSLETEGFSPLDLEIFTEKIFYDLQLERDCDNVVTRELFSKSLSAFTPSALRGVKLTKETNIKWGDIGALANAKDVLLETLEWPTKYEPIFVNCPLRLRSGILLYGYPGCGKTLLASAVAQQCGLNFISVKGPEILNKFIGASEQNIRELFERAQSVKPCILFFNEFDSIAPKRGHDSTGVTDRVVNQLLTQMDGAEGLDGVYILAATSRPDLIDSALLRPGRLDKSVICNIPTESERLDILQAIVNSKDKDTGQKKFALEKNADLKLIAEKTAGFSGADLQGLCYNAYLKSVHRWLSAADQSEVVPGNDNIEYFSINEHGRREENRLRLKTLLQQDVVHETKTSTSAASELTAVVTINDLLEACQETKPSISTSELVKLRGIYDRFQKDRNGEMPNGENSIDIGSRLSLM
notes: Pex1p of yeast with a mutation of the aspartate of the Walker B motif of the D2 domain; also called Pex1WB^D797N; Pex1pWB^D797N; not shown: His6, N-terminal, kept; GST, C-terminal, cleaved
- stoichiometry N [5]: 3

B2: HisPex6p(E832Q) (natural protein, S. cerevisiae, UniProt P33760 1-1030, looked up)
chain: MKASLTFSLSGIYAPCSISRDIYLEYGDKKAECLYGTIRLPQYGPGCTPGKIVHCVLDDSLPFCSIVVPSKLFGFMPTQPTMDFCYFEPILDNVVPVLDSVTFLINEQLYSKLMDLPQEMQQIQFLHYKYNINSMETVVHSRDILTSGLCQILNCSPFPQGLVDFTETQLILVNDTEQKLSALKYANEDEEYALPKIGTNSALSIDLESLPCTISRDLLRPAPHINDDNSIYAFTDAETLLRLDVTSGSFITVSNMGCVRLVKLFVLLLPNGFKKRTIYAPPKIIASFPDCSVVTISKSNIGHTDIPIANQVFISRVGGWLQSQKCFQNIILTTLKKFFSESKRILCQNDLIPIAFDSSMADLNIAEENDESDDEDELGQYYKNDSLVWFFVTSAELDCFSKDNSHFIIDPNRTKLITTNITNRRPLPLSRSNLQRYYGFAETFYYDLHIFPYVRQLVNILETSFNCSQRGITLNASVLLHSTTNNVGKATMVRFASKYLGIHLLEIDCLSLTSNSRQLDSTSKIIGYIRAKCENVLPYASPAVIFLAHLDSILLDVNANQDPEAIKLQKSINFEMSKLLDDFTFKFPGTTFVGSVNNIDNVPSSFRSHMRFEILVPVPSEAQRLRIFQWYLSSHELNRDVQQKVPVSYMDNISFSSLSSYSAGLTPLDIKSIVETARMTATARFYQESKKCGWLPQSILITQEDLSKATSKARNEFSVSIGAPQIPNVTWDDIGGIDFVKGEILDTIDMPLKHPELFTSGMKKRSGILFYGPPGTGKTLMAKAIATNFSLNFFSVKGPELLNMYIGESEANVRRVFQKAREAKPCVIFFDQIDSVAPKRGNQGDSGGVMDRIVSQLLAELDGMSTDADGVFVIGATNRPDLLDEALLRPGRFDKLLYLGIPDTDTKQLNILEALTRKFVLDNDVKLIELAKLCPFNYTGADFYALCSDAMLNAMSRIARMVEKKVSQHNELTGENISTRRWFDKIATKEDTKVVVKMEDFLKAQEQLTPSVSRAELNHYEAVRANFEGA
notes: Pex6p of yeast with the Walker B mutation of the D2 domain; also called Pex6pWB; PEX6WB^E832Q; source: E. coli Tuner (DE3), co-purified with HisPex1pGST; not shown: His6, N-terminal, kept
- stoichiometry N [6]: 0.9 Pex6p per Pex1p
- stoichiometry N [7]: 1 Pex15p per Pex6p
